Measurements as given in patent publication US20110091971A1, “Differentiation of Pluripotent Stem Cells” (priority 2008, published 2011).

Tested on: H1 or H9 human embryonic stem cells
Test: Activin A bioassay: differentiation of human embryonic stem cells to definitive endoderm, cell number and SOX17 intensity by high content analysis (96-well, four days);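 on Cell Number average: Raw total cell count per well from high content imaging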;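 on Sox 17 Intensity average: total fluorescence of the cell multiplied by cell area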
Format: cell-based
Conditions: for Sox 17 Intensity % of control: control = R&D Sys Activin A 100 ng/ml on same plate
How it was run: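 Read-out was cell count and integrated SOX17 immunofluorescence by high-content imaging, with each well divided by the mean of the 100 ng/ml activin A control. Over the four-day culture, test samples were given in DMEM:F12 with 0.5% FCS plus 20 ng/ml Wnt3a for the first two days and in 2% FCS alone for the last two. Cells were H1 or H9 hESC clusters grown on Matrigel.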

[1] = supernatant concentration 1x, assay dilution 1:20
[2] = supernatant concentration 10x, assay dilution 1:20
[3] = supernatant concentration 10x, assay dilution 1:40
[4] = supernatant concentration 10x, assay dilution 1:20, assay plates #007, #009, #010
[5] = supernatant concentration 50x, assay dilution 1:20, assay plates #008, #009
[6] = supernatant concentration 50x, assay dilution 1:20

B1: ACTN5: activin A variant peptide, SEQ ID 6 (protein)
chain: GLECDGKVNYCCKKQNFVSFKDIGWNDWIIAPSGYHANECSGKCPSHIAGTSGSSLSFHSTVINHYRMRGHSPFSNLGACCIPTKLRPMSMLYYDDGQNIIKKDIQNMIVEECGCS
Cell Number average [1]: 1261 | Sox 17 Intensity average [1]: 1.111E+07 | Sox 17 Intensity % of control [1]: 6.0% | Cell Number average [2]: 1396 | Sox 17 Intensity average [2]: 1.031E+07 | Sox 17 Intensity % of control [2]: 5.6% | Cell Number average [3]: 1382 | Sox 17 Intensity average [3]: 1.311E+07 | Sox 17 Intensity % of control [3]: 7.1%

B2: ACTN72: activin A variant peptide, SEQ ID 73 (protein)
chain: GLECDGKVNICCKKQLFGQAKDIGWNDWIIAPSGYHGGSCTGECPSHIAGTSGSSLSFHSTVINHYRMRGHSPNANLKSCCSPTKLRPMSMLYYDDGQNIIKKDIQNMVVEECGCT
Cell Number average [4]: 14638 | Sox 17 Intensity average [4]: 3.44E+06 | Sox 17 Intensity % of control [2]: 13.8% | Cell Number average [5]: 16810 | Sox 17 Intensity average [5]: 6.51E+06 | Sox 17 Intensity % of control [6]: 26.1%

B3: ACTN74: activin A variant peptide, SEQ ID 75 (protein)
chain: GLECDGKVNICCKKQSFGRAKDIGWNDWIIAPSGYHGGGCTGECPSHIAGTSGSSLSFHSTVINHYRMRGHSPFANLKSCCSPTKLRPMSMLYYDDGQNIIKKDIQGMVVEECGCT
Cell Number average [4]: 15049 | Sox 17 Intensity average [4]: 3.30E+06 | Sox 17 Intensity % of control [2]: 13.2% | Cell Number average [5]: 16143 | Sox 17 Intensity average [5]: 1.03E+07 | Sox 17 Intensity % of control [6]: 41.3%

B4: ACTN78: activin A variant peptide, SEQ ID 79 (protein)
chain: GLECDGKVNICCKKQLFGQAKDIGWNDWIIAPSGYHGGGCSGECPSHIAGTSGSSLSFHSTVINHYRMRGHSPVANLKSCCSPTKLRPMSMLYYDDGQNIIKKDIQNMVVEECGCT
Cell Number average [4]: 12585 | Sox 17 Intensity average [4]: 1.11E+06 | Sox 17 Intensity % of control [2]: 4.4% | Cell Number average [5]: 16301 | Sox 17 Intensity average [5]: 5.64E+06 | Sox 17 Intensity % of control [6]: 22.6%

B5: ACTN13: activin A variant peptide, SEQ ID 14 (protein)
chain: GLECDGKVNLCCKKQDFVSFKDIGWNDWIIAPSGYHANKCSGKCPSHIAGTSGSSLSFHSTVINHYRMRGHSPFSDMGSCCIPTKLRPMSMLYYDDGQNIIKKDIQNMIVEECGCS
Cell Number average [4]: 19861 | Sox 17 Intensity average [4]: 2.78E+07 | Sox 17 Intensity % of control [2]: 19.7%

B6: ACTN15: activin A variant peptide, SEQ ID 16 (protein)
chain: GLECDGKVNLCCKKQDFVSFKDIGWNDWIIAPSGYHANRCSGLCPSHIAGTSGSSLSFHSTVINHYRMRGHSPFSNMGSCCIPTKLRPMSMLYYDDGQNIIKKDIQNMIVEECGCS
Cell Number average [4]: 22700 | Sox 17 Intensity average [4]: 2.89E+07 | Sox 17 Intensity % of control [2]: 20.5%

B7: ACTN36: activin A variant peptide, SEQ ID 37 (protein)
chain: GLECDGKVNLCCKKQDFVSFKDIGWNDWIIAPSGYHANRCSGKCPSHIAGTSGSSLSFHSTVINHYRMRGHSPFANMGACCVPTKLRPMSMLYYDDGQNIIKKDIQNMIVEECGCS
Cell Number average [4]: 24664 | Sox 17 Intensity average [4]: 2.60E+07 | Sox 17 Intensity % of control [2]: 18.4%

B8: ACTN40: activin A variant peptide, SEQ ID 41 (protein)
chain: GLECDGKVNLCCKKQLFVSFKDIGWNDWIIAPSGYHANHCAGLCPSHIAGTSGSSLSFHSTVINHYRMRGHSPFSNMGSCCVPTKLRPMSMLYYDDGQNIIKKDIQNMIVEECGCS
Cell Number average [4]: 11321 | Sox 17 Intensity average [4]: 1.21E+08 | Sox 17 Intensity % of control [2]: 85.6%

B9: ACTN6: activin A variant peptide, SEQ ID 7 (protein)
chain: GLECDGKVNLCCKKQWFVSFKDIGWNDWIIAPSGYHANRCSGKCPSHIAGTSGSSLSFHSTVINHYRMRGHSPFADMGACCIPTKLRPMSMLYYDDGQNIIKKDIQNMIVEECGCS
modifications: Sytnthetic Construct
Cell Number average [1]: 939 | Sox 17 Intensity average [1]: 1.234E+07 | Sox 17 Intensity % of control [1]: 6.7% | Cell Number average [2]: 2359 | Sox 17 Intensity average [2]: 2.272E+07 | Sox 17 Intensity % of control [2]: 12.4% | Cell Number average [3]: 1790 | Sox 17 Intensity average [3]: 1.426E+07 | Sox 17 Intensity % of control [3]: 7.8%

B10: ACTN46: activin A variant peptide, SEQ ID 47 (protein)
chain: GLECDGKVNLCCKKQNFVSFKDIGWNDWIIAPSGYHANECGGLCPSHIAGTSGSSLSFHSTVINHYRMRGHSPHANRGACCIPTKLRPMSMLYYDDGQNIIKKDIQNMIVEECGCS
Cell Number average [4]: 20757 | Sox 17 Intensity average [4]: 1.99E+07 | Sox 17 Intensity % of control [2]: 14.1%

B11: ACTN49: activin A variant peptide, SEQ ID 50 (protein)
chain: GLECDGKVNLCCKKQDFVSFKDIGWNDWIIAPSGYHANRCDGLCPSHIAGTSGSSLSFHSTVINHYRMRGHSPFSDMGSCCVPTKLRPMSMLYYDDGQNIIKKDIQNMIVEECGCS
Cell Number average [4]: 10076 | Sox 17 Intensity average [4]: 1.60E+07 | Sox 17 Intensity % of control [2]: 11.3%

B12: ACTN50: activin A variant peptide, SEQ ID 51 (protein)
chain: GLECDGKVNICCKKQLFGRTKDIGWNDWIIAPSGYHGGGCSGECPSHIAGTSGSSLSFHSTVINHYRMRGHSPVANLKSCCSPTKLRPMSMLYYDDGQNIIKKDIQNMKVEECGCT
Cell Number average [4]: 22171 | Sox 17 Intensity average [4]: 1.72E+07 | Sox 17 Intensity % of control [2]: 12.2%

B13: ACTN51: activin A variant peptide, SEQ ID 52 (protein)
chain: GLECDGKVNICCKKQSFGQTKDIGWNDWIIAPSGYHGGGCSGECPSHIAGTSGSSLSFHSTVINHYRMRGHSPFANLKSCCSPTKLRPMSMLYYDDGQNIIKKDIQRMVVEECGCT
Cell Number average [4]: 21780 | Sox 17 Intensity average [4]: 1.85E+07 | Sox 17 Intensity % of control [2]: 13.1%

B14: ACTN56: activin A variant peptide, SEQ ID 57 (protein)
chain: GLECDGKVNICCKKQSFGQAKDIGWNDWIIAPSGYHGGSCTGECPSHIAGTSGSSLSFHSTVINHYRMRGHSPFANLKSCCAPTKLRPMSMLYYDDGQNIIKKDIQNMVVEECGCV
Cell Number average [4]: 23413 | Sox 17 Intensity average [4]: 2.79E+07 | Sox 17 Intensity % of control [2]: 19.8%

B15: ACTN65: activin A variant peptide, SEQ ID 66 (protein)
chain: GLECDGKVNICCKKQSFGQTKDIGWNDWIIAPSGYHGGSCSGECPSHIAGTSGSSLSFHSTVINHYRMRGHSPFANLKSCCSPTKLRPMSMLYYDDGQNIIKKDIQGMKVEECGCT
Cell Number average [4]: 22058 | Sox 17 Intensity average [4]: 3.23E+07 | Sox 17 Intensity % of control [2]: 22.9%

B16: ACTN69: activin A variant peptide, SEQ ID 70 (protein)
chain: GLECDGKVNICCKKQSFGKTKDIGWNDWIIAPSGYHGGGCTGECPSHIAGTSGSSLSFHSTVINHYRMRGHSPFANLKSCCSPTKLRPMSMLYYDDGQNIIKKDIQQMVVEECGCT
Cell Number average [4]: 20178 | Sox 17 Intensity average [4]: 2.73E+07 | Sox 17 Intensity % of control [2]: 19.4%

B17: ACTN77: activin A variant peptide, SEQ ID 78 (protein)
chain: GLECDGKVNICCKKQMFGKAKDIGWNDWIIAPSGYHGGGCTGECPSHIAGTSGSSLSFHSTVINHYRMRGHSPWANLKSCCSPTKLRPMSMLYYDDGQNIIKKDIQNMVVEECGCT
Cell Number average [4]: 17696 | Sox 17 Intensity average [4]: 2.82E+07 | Sox 17 Intensity % of control [2]: 20.0%

B18: ACTN81: activin A variant peptide, SEQ ID 82 (protein)
chain: GLECDGKVNICCKKQLFGKTKDIGWNDWIIAPSGYHGGGCTGECPSHIAGTSGSSLSFHSTVINHYRMRGHSPVANLKSCCSPTKLRPMSMLYYDDGQNIIKKDIQRMVVEECGCT
Cell Number average [4]: 19897 | Sox 17 Intensity average [4]: 1.60E+07 | Sox 17 Intensity % of control [2]: 11.4%

B19: ACTN91: activin A variant peptide, SEQ ID 92 (protein)
chain: GLECDGKVNICCKKQSFGRTKDIGWNDWIIAPSGYHGGGCSGECPSHIAGTSGSSLSFHSTVINHYRMRGHSPWANLKSCCSPTKLRPMSMLYYDDGQNIIKKDIQNMVVEECGCT
Cell Number average [4]: 17043 | Sox 17 Intensity average [4]: 1.12E+07 | Sox 17 Intensity % of control [2]: 7.9%
